# Experimental data reported in the supplement of paper PMC9112550, “Optimization of the antimicrobial peptide Bac7 by deep mutational scanning” (BMC Biology, 2022).
# Tested on: Escherichia coli TOP10
# Experiment: shrunken log2 fold change of peptide-encoding DNA abundance (4.5 h post-induction vs induction); higher = less antimicrobial activity (less host growth inhibition)
# Conditions: time post-induction: 4.5 h; library: site-saturation at positions 5, 18, 19, 20
# 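Note: peptides expressed intracellularly from a pBAD plasmid library in pooled LB shake-flask culture, induced with 0.3% L-arabinose, DNA abundance read by NGS, three biological replicates, DESeq2 with apeglm shrinkage.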
row,Sequence,shrunken log2 fold change
1,RRIRMRPPRLPRPRPRPPFEPRP,0.492
2,RRIRKRPPRLPRPRPRPEAIPRP,0.101
3,RRIRGRPPRLPRPRPRPLFMPRP,0.223
4,RRIRTRPPRLPRPRPRPTDFPRP,-0.405
5,RRIRRRPPRLPRPRPRPKIAPRP,0.147
6,RRIRCRPPRLPRPRPRPVHNPRP,-0.415
7,RRIRGRPPRLPRPRPRPMAGPRP,0.0763
8,RRIRERPPRLPRPRPRPNVFPRP,-0.189
9,RRIRTRPPRLPRPRPRPPRQPRP,0.52
10,RRIRTRPPRLPRPRPRPSTCPRP,-0.175
11,RRIRRRPPRLPRPRPRPRIVPRP,0.00997
12,RRIRFRPPRLPRPRPRPGGGPRP,0.727
13,RRIRMRPPRLPRPRPRPIHHPRP,-0.724
14,RRIRYRPPRLPRPRPRPRHWPRP,0.272
15,RRIRMRPPRLPRPRPRPFIMPRP,-0.158
16,RRIRARPPRLPRPRPRPQYVPRP,-0.116
17,RRIRKRPPRLPRPRPRPGWEPRP,-0.00146
18,RRIRSRPPRLPRPRPRPNQVPRP,-0.0256
19,RRIRERPPRLPRPRPRPKLEPRP,-0.0117
20,RRIRMRPPRLPRPRPRPFHRPRP,-0.114
21,RRIRVRPPRLPRPRPRPKLRPRP,0.128
22,RRIRYRPPRLPRPRPRPMACPRP,-0.000921
23,RRIRGRPPRLPRPRPRPAPFPRP,0.722
24,RRIRVRPPRLPRPRPRPCSVPRP,-0.0384
25,RRIRDRPPRLPRPRPRPFNPPRP,-0.509

row,Sequence,shrunken log2 fold change
1,RRIRKRPPRLPRPRPRPINEPRP,-0.215
2,RRIRMRPPRLPRPRPRPKHVPRP,0.0503
3,RRIRRRPPRLPRPRPRPFTQPRP,-0.223
4,RRIRKRPPRLPRPRPRPMFAPRP,0.485
5,RRIRRRPPRLPRPRPRPHGGPRP,0.0449
6,RRIRSRPPRLPRPRPRPGYYPRP,-0.457
7,RRIRMRPPRLPRPRPRPYQYPRP,-0.0219
8,RRIRVRPPRLPRPRPRPAEHPRP,-0.086
9,RRIRARPPRLPRPRPRPVVQPRP,0.511
10,RRIRVRPPRLPRPRPRPDQWPRP,-0.0427
11,RRIRTRPPRLPRPRPRPEAEPRP,0.0438
12,RRIRDRPPRLPRPRPRPCFFPRP,0.304
13,RRIRPRPPRLPRPRPRPVWYPRP,-0.219
14,RRIRHRPPRLPRPRPRPFVLPRP,-0.0634
15,RRIRTRPPRLPRPRPRPIFCPRP,-0.327
16,RRIRSRPPRLPRPRPRPPQMPRP,0.154
17,RRIRQRPPRLPRPRPRPGNCPRP,-0.0905
18,RRIRCRPPRLPRPRPRPGHVPRP,0.0304
19,RRIRYRPPRLPRPRPRPCYAPRP,-0.00203
20,RRIRCRPPRLPRPRPRPRRFPRP,0.338
21,RRIRDRPPRLPRPRPRPNHHPRP,-0.539
22,RRIRERPPRLPRPRPRPIQYPRP,-0.163
23,RRIRGRPPRLPRPRPRPGNNPRP,-0.0385
24,RRIRKRPPRLPRPRPRPARQPRP,0.356
25,RRIRWRPPRLPRPRPRPCMYPRP,-0.325

row,Sequence,shrunken log2 fold change
1,RRIRYRPPRLPRPRPRPQSWPRP,0.0202
2,RRIRLRPPRLPRPRPRPRDKPRP,0.133
3,RRIRMRPPRLPRPRPRPIMCPRP,-0.19
4,RRIRRRPPRLPRPRPRPLNDPRP,0.0468
5,RRIRFRPPRLPRPRPRPFDSPRP,-0.22
6,RRIRYRPPRLPRPRPRPEDHPRP,-0.581
7,RRIRMRPPRLPRPRPRPPSRPRP,1.01
8,RRIRQRPPRLPRPRPRPWTWPRP,-0.0328
9,RRIRGRPPRLPRPRPRPFNCPRP,-0.116
10,RRIRWRPPRLPRPRPRPQPFPRP,0.133
11,RRIRERPPRLPRPRPRPFMIPRP,-0.768
12,RRIRFRPPRLPRPRPRPQADPRP,0.0728
13,RRIRDRPPRLPRPRPRPHTPPRP,0.0203
14,RRIRGRPPRLPRPRPRPVRAPRP,1.01
15,RRIRNRPPRLPRPRPRPRMQPRP,-0.0634
16,RRIRRRPPRLPRPRPRPDDYPRP,-0.377
17,RRIRHRPPRLPRPRPRPNDQPRP,-0.169
18,RRIRYRPPRLPRPRPRPYVHPRP,-1.05
19,RRIRLRPPRLPRPRPRPQEDPRP,-0.0336
20,RRIRKRPPRLPRPRPRPKQAPRP,0.00509
21,RRIRMRPPRLPRPRPRPVKVPRP,0.0321
22,RRIRVRPPRLPRPRPRPVPPPRP,0.27
23,RRIRARPPRLPRPRPRPQTIPRP,-0.196
24,RRIRNRPPRLPRPRPRPPRIPRP,0.325
25,RRIRQRPPRLPRPRPRPDNTPRP,-0.178

row,Sequence,shrunken log2 fold change
1,RRIRQRPPRLPRPRPRPWFGPRP,-0.352
2,RRIRFRPPRLPRPRPRPIDVPRP,-0.146
3,RRIRVRPPRLPRPRPRPVIMPRP,-0.227
4,RRIRSRPPRLPRPRPRPQRNPRP,0.104
5,RRIRTRPPRLPRPRPRPSDGPRP,0.0381
6,RRIRRRPPRLPRPRPRPILGPRP,0.0385
7,RRIRCRPPRLPRPRPRPLMTPRP,-0.0133
8,RRIRHRPPRLPRPRPRPQLVPRP,-0.0576
9,RRIRMRPPRLPRPRPRPIDLPRP,-0.00804
10,RRIRWRPPRLPRPRPRPNQWPRP,0.223
11,RRIRWRPPRLPRPRPRPAALPRP,0.257
12,RRIRWRPPRLPRPRPRPYSYPRP,-0.00188
13,RRIRSRPPRLPRPRPRPSEWPRP,0.0157
14,RRIRYRPPRLPRPRPRPETTPRP,-0.289
15,RRIRLRPPRLPRPRPRPDTPPRP,0.0881
16,RRIRRRPPRLPRPRPRPSALPRP,0.392
17,RRIRQRPPRLPRPRPRPIMRPRP,0.0932
18,RRIRSRPPRLPRPRPRPHYNPRP,-1.04
19,RRIRARPPRLPRPRPRPKNEPRP,0.215
20,RRIRGRPPRLPRPRPRPRHFPRP,0.379
21,RRIRLRPPRLPRPRPRPSYEPRP,-0.496
22,RRIRSRPPRLPRPRPRPHWQPRP,-0.0893
23,RRIRYRPPRLPRPRPRPFLHPRP,-0.786
24,RRIRRRPPRLPRPRPRPNKQPRP,-0.00565
25,RRIRRRPPRLPRPRPRPSSTPRP,0.197

row,Sequence,shrunken log2 fold change
1,RRIRWRPPRLPRPRPRPDSFPRP,0.00192
2,RRIRPRPPRLPRPRPRPCWSPRP,0.0606
3,RRIRHRPPRLPRPRPRPRGFPRP,0.0657
4,RRIRHRPPRLPRPRPRPYSTPRP,0.122
5,RRIRERPPRLPRPRPRPSRSPRP,0.116
6,RRIRDRPPRLPRPRPRPHACPRP,0.00242
7,RRIRQRPPRLPRPRPRPWCRPRP,-0.325
8,RRIRKRPPRLPRPRPRPGMEPRP,0.0527
9,RRIRERPPRLPRPRPRPHIGPRP,0.00581
10,RRIRPRPPRLPRPRPRPGFEPRP,0.225
11,RRIRDRPPRLPRPRPRPCCKPRP,0.0846
12,RRIRDRPPRLPRPRPRPCRKPRP,-0.00804
13,RRIRARPPRLPRPRPRPRHRPRP,0.412
14,RRIRGRPPRLPRPRPRPGVQPRP,0.739
15,RRIRPRPPRLPRPRPRPSDQPRP,0.029
16,RRIRLRPPRLPRPRPRPDLQPRP,-0.0184
17,RRIRIRPPRLPRPRPRPMIQPRP,0.102
18,RRIRGRPPRLPRPRPRPLHMPRP,0.379
19,RRIRARPPRLPRPRPRPFCNPRP,-0.0929
20,RRIRMRPPRLPRPRPRPPHIPRP,-0.0498
21,RRIRVRPPRLPRPRPRPGPRPRP,0.791
22,RRIRCRPPRLPRPRPRPWHIPRP,-0.421
23,RRIRCRPPRLPRPRPRPTQWPRP,0.202
24,RRIRMRPPRLPRPRPRPEPRPRP,1.5
25,RRIRTRPPRLPRPRPRPMMSPRP,-0.282
